# Data as given in PMC4840014, “The G-quadruplex-forming aptamer AS1411 potently inhibits HIV-1 attachment to the host cell”.
# Tests used:
# nucleolin (NCL) = nucleolin (NCL) (human (human recombinant protein), UniProt P19338 1-710); assay: SPR; HEPES-KCl; SPR (Biacore T100, CM5 chip), HEPES-KCl buffer (composition, pH and temperature not given), oligos 15.6-1000 nM, heated 95 C 5 min and cooled to room temperature, 20 uL/min, 120 s contact and dissociation, 1 M KCl regeneration
# [1] = molecular target: gp120 envelope glycoprotein (HIV-1 IIIB, UniProt P04578 33-511); assay: SPR; HEPES-KCl; up to 1000 nM; SPR (Biacore T100, CM5 chip), HEPES-KCl buffer (composition, pH and temperature not given), oligos 15.6-1000 nM, heated 95 C 5 min and cooled to room temperature, 20 uL/min, 120 s contact and dissociation, 1 M KCl regeneration; details: protein: recombinant
# nucleolin (NCL), sequence (P19338 whole entry): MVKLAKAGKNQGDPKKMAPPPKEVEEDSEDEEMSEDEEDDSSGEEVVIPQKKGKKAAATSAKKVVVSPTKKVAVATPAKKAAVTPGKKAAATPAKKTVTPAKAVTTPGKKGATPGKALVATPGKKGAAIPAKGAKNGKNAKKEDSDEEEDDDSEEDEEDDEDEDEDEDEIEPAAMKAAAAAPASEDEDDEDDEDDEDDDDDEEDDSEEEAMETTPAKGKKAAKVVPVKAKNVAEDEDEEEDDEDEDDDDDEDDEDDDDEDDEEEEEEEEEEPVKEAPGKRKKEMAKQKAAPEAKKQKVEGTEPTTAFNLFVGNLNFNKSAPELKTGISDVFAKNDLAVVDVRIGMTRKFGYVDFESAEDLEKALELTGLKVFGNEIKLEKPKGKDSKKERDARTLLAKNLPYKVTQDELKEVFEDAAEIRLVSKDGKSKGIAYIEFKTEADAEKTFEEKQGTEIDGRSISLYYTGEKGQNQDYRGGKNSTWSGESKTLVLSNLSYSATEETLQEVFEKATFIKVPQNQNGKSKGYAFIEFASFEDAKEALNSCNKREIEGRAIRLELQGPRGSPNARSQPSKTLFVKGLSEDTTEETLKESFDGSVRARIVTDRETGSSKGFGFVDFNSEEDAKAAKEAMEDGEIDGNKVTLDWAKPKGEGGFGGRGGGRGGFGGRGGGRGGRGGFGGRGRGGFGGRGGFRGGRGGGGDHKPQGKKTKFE
binder,measurement,setting,value
GGTGGTGGTGGTTGTGGTGGTGGTGG (structured_DNA) [AS1411],Kd,"nucleolin (NCL); G4, described as dimeric",34.2 nM
GGGAGGCGTGGCCTGGGCGGGACTGGGG (structured_DNA) [LTR-III],Kd,nucleolin (NCL); G4,76.3 nM
CCTCCTCCTCCTTCTCCTCCTCCTCC (ssDNA) [CRO26],binding result,"[1]; C-rich, negative control",no binding
SCRA (ssDNA) DNA: TTTTTGGAGCGTGTGTGCGCGAGAGCGTGCGCGTGGCGAGCGTGGAGTGGTTTTT,binding result,"[1]; G-rich, non-G4",no binding
